Measured values published in article PMC2196183.
Where “and” joins values, the source holds several entries; their conditions need not be identical. Identical values can stand only once.

Molecular target: GSK3 binding protein (GBP) on beads (Xenopus)
Experiment: pull-down

B1: dishevelled (dsh), radiolabeled (natural protein)
chain: MAETKVIYHLDEEETPYLVKVPVPATDIRLRDFKAALGRGHAKYFFKAMDQDFGVVKEEISDDNAKLPCFNDRVVSWLASSEGSQPDSAPPAPATEVRPEPPPPVPPPIPPPPAERTSGIGDSRPPSFHPNVSGSTEQLDQDNESVISMRRDRVRRRESSEQAGVGRGVNGRTERHLSGYESSSTLLTSEIETSICDSEEDDTMSRFSSSTEQSSASRLLKRHRRRRKQRPPRLERTSSFSSVTDSTMSLNIITVTLNMEKYNFLGISIVGQSNERGDGGIYIGSIMKGGAVAADGRIEPGDMLLQVNDINFENMSNDDAVRVLRDIVHKPGPIVLTVAKCWDPSPQGYFTLPRNEPIHPIDPAAWVSHSAALSGSFPVYPGSASMSSMTSSTSVTETELSHALPPVSLFSLSVHTDLASVVKVMASPESGLEVRDRMWLKITIPNAFLGSDVVDWLYHHVEGFQDRREARKFASNLLKAGFIRHTVNKITFSEQCYYIFGDLTGCENYMTNLSLNDNDGSSGASDQDTLAPLPLPGASPWPLLPTFSYQYQAPHPYSTQPPAYHELSSYSYGMGSAGSQHSEGSRSSGSNRSDGGRGMQKDDRSGVAGVGGGDSKSGSGSESEYSTRSSIRRVGGGEAGPPSERSTSSRLPPHHPPSVHSYAAPGVPLSYNPMMLMMMPPPPLPPPGVCPPNSSVPPGAPPLVRDLASVPPELTATRQSFHMAMGNPSEFFVDVM
modifications: [35S]methionine label
fold increase in binding with 1 μM CK1ε against buffer- or GSK3-treated extracts: 4 fold and 5 fold
